Data as given in patent US8143228B2, “Agents capable of downregulating an MSF-A dependent HIF-1α and use thereof in cancer treatment” (Medical Research Fund of Tel Aviv Sourasky Medical Center, priority 2004, dated 2012).
“Also recorded” adds a separate entry of the source.

B1: ΔN-MSF-A: N-terminal truncated MSF-A, deletion of the first 25 amino acids (SEQ ID NO:10, encoded by SEQ ID NO:7) (protein, listed as Homo sapiens)
chain: ALKRSFEVEEVETPNSTPPRRVQTPLLRATVASSTQKFQDLGVKNSEPSARHVDSLSQRSPKASLRRVELSGPKAAEPVSRRTELSIDISSKQVENAGAIGPSRFGLKRAEVLGHKTPEPAPRRTEITIVKPQESAHRRMEPPASKVPEVPTAPATDAAPKRVEIQMPKPAEAPTAPSPAQTLENSEPAPVSQLQSRLEPKPQPPVAEATPRSQEATEAAPSCVGDMADTPRDAGLKQAPASRNEKAPVDFGYVGIDSILEQMRRKAMKQGFEFNIMVVGQSGLGKSTLINTLFKSKISRKSVQPTSEERIPKTIEIKSITHDIEEKGVRMKLTVIDTPGFGDHINNENCWQPIMKFINDQYEKYLQEEVNINRKKRIPDTRVHCCLYFIPATGHSLRPLDIEFMKRLSKVVNIVPVIAKADTLTLEERVHFKQRITADLLSNGIDVYPQKEFDEDSEDRLVNEKFREMIPFAVVGSDHEYQVNGKRILGRKTKWGTIEVENTTHCEFAYLRDLLIRTHMQNIKDITSSIHFEAYRVKRLNEGSSAMANGVEEKEPEAPEM
modifications: 3xFlag tag
B2: ΔG-MSF-A: MSF-A mutant lacking the GTP binding domain, deletion of amino acids 305-312 GQSGLGKS (SEQ ID NO:4215) (protein, listed as Homo sapiens)
chain: MKKSYSGGTRTSSGRLRRLGDSSGPALKRSFEVEEVETPNSTPPRRVQTPLLRATVASSTQKFQDLGVKNSEPSARHVDSLSQRSPKASLRRVELSGPKAAEPVSRRTELSIDISSKQVENAGAIGPSRFGLKRAEVLGHKTPEPAPRRTEITIVKPQESAHRRMEPPASKVPEVPTAPATDAAPKRVEIQMPKPAEAPTAPSPAQTLENSEPAPVSQLQSRLEPKPQPPVAEATPRSQEATEAAPSCVGDMADTPRDAGLKQAPASRNEKAPVDFGYVGIDSILEQMRRKAMKQGFEFNIMVVTLINTLFKSKISRKSVQPTSEERIPKTIEIKSITHDIEEKGVRMKLTVIDTPGFGDHINNENCWQPIMKFINDQYEKYLQEEVNINRKKRIPDTRVHCCLYFIPATGHSLRPLDIEFMKRLSKVVNIVPVIAKADTLTLEERVHFKQRITADLLSNGIDVYPQKEFDEDSEDRLVNEKFREMIPFAVVGSDHEYQVNGKRILGRKTKWGTIEVENTTHCEFAYLRDLLIRTHMQNIKDITSSIHFEAYRVKRLNEGSSAMANGVEEKEPEAPEM
modifications: 3xFlag tag

What was measured:
[1] = test system: HIF-1α protein; assay: HIF-1α protein stability assays (cycloheximide treatment, pulse-chase) in PC-3 cells; assay type: cell-based; settings: PC-3-Neo cells, within 20 minutes, CHX 10 μg/ml, normalized to α-tubulin
Description: FIGS. 16a-c are Western blot analyses depicting the effect of cycloheximide (CHX) on the expression level of HIF-1α (FIG. 16a) and α-tubulin (FIG. 16b) in PC-3-Neo or PC-3-MSF-A cells grown under normoxia. CHX was added to PC-3-Neo (lanes 1-5) or PC-3-MSF-A (lanes 6-10) at a final concentration of 10 μg/ml, for 0 (lanes 1 and 6), 5 (lanes 2 and 7), 15 (lanes 3 and 8), 30 (lanes 4 and 9) and 45 (lanes 5 and 10) minutes. Whole cell extracts were prepared and resolved by SDS-PAGE and Western blotting was performed with antibodies against HIF-1α (FIG. 16a) or α-tubulin (FIG. 16b). FIG. 16c is a graph depicting quantitation of the results obtained in FIGS. 16a and b expressed as the ratio of HIF-1α expression level normalized to that of α-tubulin. Note, the relatively slow degradation of HIF-1α in cells over-expressing the MSF-A protein, with a degradation half-life of 40 minutes as compared to the degradation half-life of less than 20 minutes in PC-3-Neo cells (FIG. 16c).
FIGS. 17a-b depict pulse-chase analysis of HIF-1α. […] FIG. 17b-quantification of the autoradiographic HIF-1α signal by densitometry.
HIF-1α protein stability assays—Cells were plated into 6-well plates and grown to 70% confluence. […] Immunoprecipitates were analyzed on SDS-PAGE and visualized by autoradiography.

[2] = test system: HIF-1α transcriptional activity; assay: HRE-dependent luciferase reporter gene assay in HEK 293 cells; assay type: cell-based; settings: transient transfection, hypoxia, compared with empty vector
Description: FIG. 7 is a graph depicting luciferase activity (a reporter of HIF-1α transcriptional activation) as a function of the presence or absence of the N-terminus of the MSF-A protein. HEK 293 cells were co-transfected with 0.1 μg HRE-dependent luciferase reporter [pBI-GL V6L (Post, D. E., and Van Meir, E. G. 2001. Generation of bidirectional hypoxia/HIF-responsive expression vectors to target gene expression to hypoxic cells. Gene Ther 8, 1801-1807. Mabjeesh, N. J., et al., 2002, Geldanamycin induces degradation of hypoxia-inducible factor 1 alpha protein via the proteasome pathway in prostate cancer cells. Cancer Res 62, 2478-2482) and the wild type (WT) MSF-A (p3xFlag-MSF-A), ΔN-MSF-A (ΔN) (p3xFlag-ΔN-MSF-A) or empty vector (EV) (p3xFlag-cmv-25) constructs as follows: Experiment (Exp.) No. 1=1 μg EV; Exp. No. 2=0.5 μg EV and 0.5 μg WT; Exp. No. 3-1 μg WT; Exp. No. 4=0.5 μg EV and 0.5 μg ΔN; Exp. No. 5=1 μg ΔN. After 24 hours of transfection, cells were subjected to normoxia or hypoxia for overnight and then analyzed for luciferase luminescence assay. Luciferase activity is presented as relative units per μg protein in each experiment. Columns represent means; bars represent SD; n=3; *, p<0.05 compared to hypoxia of EV. Note the significant decrease of luciferase activity in cells grown under hypoxia and transfected with the N-terminus truncated form (ΔN) of MSF-A as compared with cells transfected with the wild-type form of MSF-A. Also note that under normoxia, when the luciferase activity is hardly detected, no significant difference is obtained.
FIG. 8 is a graph depicting luciferase activity (a reporter of HIF-1α transcriptional activation) as a function of the presence or absence of the GTP binding site of MSF-A (ΔG). HEK 293 cells were cotransfected with HRE-dependent luciferase reporter and the expression vector encoding wild-type MSF-A (WT) (p3xFlag-MSF-A), the deleted GTP binding site form of MSF-A (ΔG) (p3xFlag-ΔG-MSF-A) or empty vector (EV) (p3xFlag-cmv-25) and then were exposed to hypoxia conditions as described in the description of FIG. 4, hereinabove. Luciferase activity is presented as relative units per μg protein in each experiment. Columns represent means; bars represent SD; n=3. Note the non-significant effect of the ΔG-MSF-A on HIF-1α activity.
Reporter gene assay and luminescence measurements—HRE-dependent luciferase activity was performed using the pBI-GL construct (pBI-GL V6L) containing six tandem copies of the VEGF hypoxia response element as previously described (Mabjeesh et al., 2002; Post and Van Meir, 2001). […] Luciferase enzymatic activity was measured using the commercial kit TROPIX (Bedford, Mass.) in the Galaxy luminometer (BMG Labtechnologies LUMIstar) following the manufacturer's instructions. […]

[3] = target: T1, HIF-1α protein (Homo sapiens, UniProt Q16665); assay: Co-immunoprecipitation / immunoblotting with HIF-1α in transfected HEK 293 cells; assay type: binding; settings: transient transfection
T1 construct: expressed in transfected cells; host or cells: HEK 293
T1 sequence (Q16665 whole entry): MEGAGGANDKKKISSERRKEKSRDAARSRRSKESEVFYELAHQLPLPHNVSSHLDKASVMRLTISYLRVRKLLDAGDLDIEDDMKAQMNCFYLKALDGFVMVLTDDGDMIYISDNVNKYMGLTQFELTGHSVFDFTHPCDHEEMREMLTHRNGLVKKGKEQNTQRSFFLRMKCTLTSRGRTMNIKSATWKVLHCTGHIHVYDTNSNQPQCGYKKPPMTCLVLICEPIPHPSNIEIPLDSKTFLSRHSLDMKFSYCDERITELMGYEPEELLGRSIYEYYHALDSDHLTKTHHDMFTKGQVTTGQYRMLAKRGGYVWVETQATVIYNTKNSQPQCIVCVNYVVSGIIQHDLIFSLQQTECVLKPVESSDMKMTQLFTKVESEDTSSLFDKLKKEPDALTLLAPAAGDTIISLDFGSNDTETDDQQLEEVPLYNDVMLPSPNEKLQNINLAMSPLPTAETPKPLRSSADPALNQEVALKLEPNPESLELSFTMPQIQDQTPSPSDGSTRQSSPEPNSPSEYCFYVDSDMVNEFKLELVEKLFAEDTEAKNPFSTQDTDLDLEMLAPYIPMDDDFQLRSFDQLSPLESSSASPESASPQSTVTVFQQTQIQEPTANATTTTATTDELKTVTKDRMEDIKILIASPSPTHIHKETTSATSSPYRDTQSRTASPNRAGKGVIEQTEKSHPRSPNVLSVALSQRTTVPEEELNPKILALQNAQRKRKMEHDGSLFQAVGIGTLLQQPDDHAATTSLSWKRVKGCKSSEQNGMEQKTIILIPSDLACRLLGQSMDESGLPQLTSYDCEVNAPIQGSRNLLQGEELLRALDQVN
Description: FIGS. 9a-c are Western blot analyses of FLAG (MSF-A; FIGS. 9a and b) and HIF-1α (FIG. 9c) depicting the interaction between HIF-1α and the WT or deleted forms of MSF-A. HEK 293 cells were transiently co-transfected with expression vector encoding Flag-MSF-A (WT; p3xFlag-MSF-A), Flag-ΔG (AG; p3xFlag-ΔG-MSF-A), Flag-ΔN (ΔN; p3xFlag-ΔN-MSF-A) or empty vector (EV; p3xFlag-cmv-25). After 48 hours, the cells were lysed, subjected for immunoprecipitation (IP) using HIF-1α antibody and then immunoblotted (IB) with HIF-1α or Flag antibodies. FIG. 9a—whole cell extracts (WCE) subjected to IB with the Flag antibody (MSF-A); FIG. 9b—IP prepared by the HIF-1α antibody were subjected to IB with the Flag antibody (MSF-A); FIG. 9c—IP prepared by the HIF-1α antibody were subjected to IB with the HIF-1α antibody.
Immunoblotting—Proteins (30-60 μg/lane) from WCEs were resolved by 7.5% SDS-PAGE, electro-blotted to nitrocellulose membranes and incubated with the indicated primary antibodies, followed by horseradish peroxidase-conjugated secondary antiserum (Amersham Biosciences, Piscataway, N.J.). Immunoreactivity was visualized by Amersham enhanced chemiluminescence reagent (Amersham Biosciences, Piscataway, N.J.). For sequential blotting with additional antibodies, the membranes were stripped from the first primary antibody using a restore Western blot stripping buffer (Pierce, Rockford, Ill.) and were re-probed using the second primary antibody as indicated.
Immunoprecipitation—Cells were washed twice with ice-cold PBS, lysed in 20 mM Na-HEPES, pH 7.5, 0.5% Nonidet P-40, 0.1M NaCl, 2 mM EDTA, 10% Glycerol and 2 mM DTT supplemented with protease and phosphatase inhibitors, and were subjected to immunoprecipitation using anti-HIF-1α antibody and protein G-agarose beads (Pierce, Ill.) according to the manufacturer's instructions.
To confirm the interaction between the HIF-1α and the MSF-A proteins, HEK 293 cells were transiently co-transfected with the p3xFlag-MSF-A and the pcDNA3.1-HIF-1α vectors, and were grown for 24 hours under normoxic conditions (i.e., conditions of 20% oxygen), following which whole cell extracts (WCE) were subjected to co-immunoprecipitation (IP) using anti-FLAG or anti-HIF-1α antibodies. Following IP, the proteins were subjected to SDS-PAGE and immunoblotting (IB) using the counterpart antibody. As is shown in FIGS. 3a-d, following transfection with both expression vectors (i.e., pcDNA3.1-HIF-1α and p3xFlag-MSF-A) immunoprecipitates generated using either the anti-HIF-1α antibody or the anti-Flag antibody included the reciprocal proteins, i.e., the Flag-MSF-A or HIF-1α proteins, respectively.

Molecule	HIF-1α protein levels after exposure to CHX [1]	HIF-1α transcriptional activity (luciferase reporter) [2]	association with HIF-1α protein (co-immunoprecipitation) [3]	association with HIF-1α protein (co-immunoprecipitation) ([3]; listed as N-terminal truncated form of MSF-A)	association with HIF-1α protein (co-immunoprecipitation) ([3]; listed as ΔN-MSF)	HIF-1α transcriptional activity (luciferase reporter) ([2]; listed as ΔG-MSF)	association with HIF-1α protein (co-immunoprecipitation) ([3]; listed as ΔG-MSF)
C[C@@H]1C[C@@H]([C@H](O)CC2CC(=O)NC(=O)C2)C(=O)[C@@H](C)C1 [CHX, cycloheximide]	about 50%	–	–	–	–	–	–
B1	–	dose-dependent inhibition; also recorded: inhibition of HIF-1α activation below the level observed in cells transfected with the empty vector	capable of binding	unable to form a protein complex	co-immunoprecipitated	–	–
B2	–	no significant effect	capable of binding	–	–	lack of activation	co-immunoprecipitated
